# Tests used:
# [1] = target: wild type GluN2B C-terminus peptide (…); experiment: SPR
# [2] = target: wild type GluN2A C-terminus peptide (…); experiment: SPR
substance,measurement,setting,value
isolated FRMPD2 PDZ2 domain (from UniProt A0A140LI67 934-1027) (domain or fragment),Kd,[1],250 µM
same,Kd,[2],0.31 µM

# Reference: paper doi:10.1101/403360
